Consider one substance from paper PMC8726603.

The experiment addresses SUMO-tagged CGAS (human) (UniProt Q8N884). Briefly: SPR. On the technique in general: Surface plasmon resonance follows binding to a sensor surface in real time, without labels.
Sequence of UniProt Q8N884 (Q8N884 whole entry): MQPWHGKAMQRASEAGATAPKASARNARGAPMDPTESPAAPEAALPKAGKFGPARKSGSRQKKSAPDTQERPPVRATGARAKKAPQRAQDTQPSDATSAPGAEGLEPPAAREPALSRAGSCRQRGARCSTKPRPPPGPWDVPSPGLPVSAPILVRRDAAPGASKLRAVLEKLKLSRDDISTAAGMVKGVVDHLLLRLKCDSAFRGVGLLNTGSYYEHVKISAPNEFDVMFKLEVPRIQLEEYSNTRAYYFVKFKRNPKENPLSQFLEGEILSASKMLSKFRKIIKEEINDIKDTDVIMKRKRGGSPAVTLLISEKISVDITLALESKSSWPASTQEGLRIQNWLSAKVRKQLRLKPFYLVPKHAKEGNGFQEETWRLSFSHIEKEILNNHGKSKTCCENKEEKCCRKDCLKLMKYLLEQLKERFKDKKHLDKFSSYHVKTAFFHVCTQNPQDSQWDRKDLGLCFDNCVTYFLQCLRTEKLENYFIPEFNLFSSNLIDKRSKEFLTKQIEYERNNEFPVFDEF

By Kd is commonly meant the equilibrium constant for the complex coming apart. A lower Kd goes with higher affinity. Regarding “His-tagged LC3B (from UniProt Q9GZQ8 1-120) (natural protein; other documents disagree on this pair)”, the Kd was determined as 170 nM. This counts as sub-micromolar.
